From US20120328625A1 (AstraZeneca / MedImmune, published 2012)

Tests used:
[1] = biological target: T1, Shh-N in conditioned medium (human, UniProt Q15465 24-197, N-terminal palmitoyl modification; lacks the C-terminal cholesterol moiety); test: cell-based or functional assay
[2] = biological target: T2, full length human Shh expressed on the cell surface (human, UniProt Q15465 24-462); test: cell-based or functional assay
[3] = biological target: T1, Shh-N in conditioned medium; test: cell-based or functional assay; remark: listed apart in the source
biotinylated human Shh = biological target: T3, biotinylated human Shh (human, UniProt Q15465 24-197, limits assumed, biotinylated); test: ELISA, hybridoma supernatant on neutravidin-captured biotin-Shh
T3 construct: also called biotin-Shh; immobilized biotinylated Shh
Experimental: After blocking with 1% milk in PBS, 40 μl of 500 ng/ml biotinylated Shh in 1×PBS, 1% milk (wt/vol) was added to each well and incubated for 1 hr at RT. Hybridoma supernatants (10 μl/well) were added to 40 μl of 1% milk, 0.05% Tween-20 in PBS per well and incubated 1 hr at RT. Following washing and incubation with secondary antibody (100 ng/ml goat-anti-human IgG Fc HRP), wells were developed with TMB substrate and subsequently quenched with 1 N HCl.

[4] = biological target: T2, full length human Shh expressed on the …; test: FMAT, hybridoma supernatant on 293T cells transiently expressing human Shh
Experimental: Cells were maintained at 1×10⁶ cells/ml overnight at 37° C., 5% CO₂. […] Supernatants were added to each well (10 μl/well) and incubated 1.5 hrs at RT. […] Plates were read on the FMAT 8100 HTS system from Applied Biosystems. Total signal (FL1×count) is defined as the number of positive cells in a well (count) multiplied by the average fluorescence intensity of the positive cells (FL1).

[5] = biological target: T1, Shh-N in conditioned medium; test: ELISA, apparent KD, purified antibody on immobilized Shh-CM
Experimental: (§1) The binding of purified antibodies to recombinant human Shh was determined using an ELISA-based method. The N-terminal signaling domain of Shh, Shh-N, was presented in two forms: as a purified protein isolated from bacteria lacking lipid modifications and as a constituent of conditioned medium in a form that contains the N-terminal palmitoyl modification but lacks the C-terminal cholesterol moiety.
(§2) The plates were sealed and placed on a shaker overnight at 5° C. The next day, the plates were washed 4 times with PBS with 0.05% Tween 20 (PBS-T). […] The plates were washed four times with PBS-T. Titrations of purified antibody (half log serial dilutions over at least six logs with a starting concentration of 30 μg/mL) were made in 100 μl PBS-T and added into wells and incubated with shaking overnight at 4° C. Antibody controls included human IgG2 and IgG4 (Sigma-Aldrich, Cat, #I5404 and #I4639, respectively). […] Following washing with PBS-T, the chemiluminescent Peroxidase substrate (Sigma cat# CPS-2-60) was added at room temperature and incubated for ten minutes with the plate covered by foil. Each well was read for 100 msec in the Spectromax 5e to determine RLU.

[6] = biological target: T4, Recombinant Human Sonic Hedgehog C24II amino terminal peptide (R&D Systems cat#1845-SH) (human, UniProt Q15465 24-197); test: ELISA, apparent KD, purified antibody on immobilized Shh C24II
T4 construct: domain: amino terminal peptide; bought; also called Shh-C24II; C24II peptide
Experimental: as §1, §2

[7] = biological target: T2, full length human Shh expressed on the …; test: flow cytometry, exhaust hybridoma supernatant 1:10, 293T cells transiently expressing human Shh
Experimental: Finally, binding of antibody in exhaust hybridoma supernatants to native Shh was assessed using flow cytometry. […] Transfected or parental cells were seeded into the plates with V-bottom wells (50,000 cells/well). Exhaust supernatants (50 μl of a 1:10 dilution) were added to each well and incubated at 4° C. for 1 hr. […] It was added to a concentration of 2 μg/ml in a volume of 50 μl. Cells were washed and 50 μl of a 2 μg/ml solution of secondary antibody (Cy5-labeled goat-anti-human IgG or Cy5-labeled goat-anti-rabbit IgG) were added to each well. 7AAD was added to a concentration of 5 μg/ml and the mixture was incubated for 30 min at RT. The mean fluorescence for each sample was then determined using flow cytometry.

[8] = biological target: T1, Shh-N in conditioned medium; test: cell-based or functional assay; remark: listed apart in the source
[9] = biological target: T2, full length human Shh expressed on the …; test: cell-based or functional assay; remark: listed apart in the source
[10] = biological target: T1, Shh-N in conditioned medium; test: cell-based or functional assay; remark: listed apart in the source
[11] = biological target: T1, Shh-N in conditioned medium; test: SPR (Biacore T100), recombinant IgG2 mAb amine-coupled to CM5, Shh as analyte, 1:1 model
Experimental: (§3) The binding affinity of four purified recombinant antibodies expressed in a human IgG2 constant domain background was measured by high resolution Biacore. All experiments were performed using a Biacore T100 instrument at 23° C. […] All mAbs were covalently coupled to a CM5 biosensor chip using routine amine coupling chemistry. […] For experiments with Shh-containing conditioned media (CM), a 1.5 mL aliquot was centrifuged for 10 minutes at 13,200 rpm. […] Shh samples were randomly injected in triplicate with several buffer inject cycles interspersed for double referencing. All sensorgram data were processed using Scrubber and fit to a 1:1 interaction model (including a term kₘ for mass transport) using CLAMP.

[12] = biological target: T4, Recombinant Human Sonic Hedgehog C24II …; test: as above
Experimental: as §3

[13] = biological target: T2, full length human Shh expressed on the …; test: flow cytometry, recombinant hIgG2 on CAOV3 cells stably over-expressing full length Shh; 95% CI ±32.4 pM
[14] = biological target: T2, full length human Shh expressed on the …; test: flow cytometry, recombinant hIgG2 on CAOV3 cells stably over-expressing full length Shh; 95% CI ±460 pM
[15] = biological target: T5, Recombinant Human/Mouse Indian Hedgehog C28II, amino terminal peptide (R&D Systems cat#1705-HH/CF) (human/mouse (100% sequence identity in …, UniProt Q14623 28-202)); test: ELISA, apparent KD, purified antibody on immobilized human/mouse Ihh
T5 construct: domain: amino terminal peptide; bought; also called Human/mouse Ihh; Ihh-N C28II
Experimental: as §2

[16] = biological target: T2, full length human Shh expressed on the …; test: flow cytometry, hybridoma-derived hIgG4 on HEK 293 cells stably expressing full length Shh; 95% CI ±40 pM
Experimental: (§4) The binding affinity of the purified antibodies for full length Shh ectopically expressed on the surface of a pool of stable HEK 293 cells was determined using flow cytometry. […] Antibody was mixed with cells at approximately 74,000 cells/well in a final volume of 300 μl in a polypropylene microtiter plate. The plate was incubated with shaking for 5 hours at 4° C. […] The plates were shaken for 20 minutes at 4° C. The mean fluorescence of 10,000 events was recorded for each sample using FACS Canto II HTS flow cytometry instrumentation. A plot of the mean fluorescence as a function of antibody concentration was fit nonlinearly with Scientist 3.0 software to estimate KD.

[17] = biological target: T6, Recombinant Human Desert Hedgehog C23II, amino terminal peptide (R&D Systems cat#4777-HH) (human, UniProt O43323 23-198); test: ELISA, immobilized human Dhh, antibody 30 µg/ml to 1 pg/ml
T6 construct: domain: amino terminal peptide; bought; also called Human Dhh
Experimental: The plates were washed four times with PBS-T. Titrations of purified antibody (half log serial dilutions over at least six logs with a starting concentration of 30 μg/mL) were made in 100 μl PBS-T and added into wells and incubated with shaking overnight at 4° C. Antibody controls included human IgG2 and IgG4 (Sigma-Aldrich, Cat, #I5404 and #I4639, respectively). […] Following washing with PBS-T, the chemiluminescent Peroxidase substrate (Sigma cat# CPS-2-60) was added at room temperature and incubated for ten minutes with the plate covered by foil. Each well was read for 100 msec in the Spectromax 5e to determine RLU.
After washing with PBS-T and blocking with 1% BSA, antibody titrations spanning concentrations of 30 μg/ml to 1 pg/ml prepared by half log serial dilution in PBS-T were added to wells and incubated with shaking overnight at 4° C.

[18] = biological target: T2, full length human Shh expressed on the …; test: flow cytometry, recombinant hIgG2 on CAOV3 cells stably over-expressing full length Shh; 95% CI ±19.4 pM
[19] = biological target: T1, Shh-N in conditioned medium; test: SPR (Biacore T100), recombinant IgG2 mAb amine-coupled to CM5, Shh as analyte, 1:1 model; KD only an estimate
Experimental: as §3

[20] = biological target: T4, Recombinant Human Sonic Hedgehog C24II …; test: as above
Experimental: as §3

[21] = biological target: T2, full length human Shh expressed on the …; test: flow cytometry, hybridoma-derived hIgG4 on HEK 293 cells stably expressing full length Shh; 95% CI ±141 pM
Experimental: as §4

[22] = biological target: T2, full length human Shh expressed on the …; test: flow cytometry, recombinant hIgG2 on CAOV3 cells stably over-expressing full length Shh; 95% CI ±30.4 pM

| % Inhibition of Gli1 reporter, Conditioned Media N = 1, 20 µg/ml [1] | % Inhibition of Gli1 reporter, Conditioned Media N = 2, 20 µg/ml [1] | % Inhibition of Gli1 reporter, Co-Culture N = 1, 20 µg/ml [2] | % Inhibition of Gli1 reporter, Co-Culture N = 2, 20 µg/ml [2] | IC50, inhibition of osteoblast differentiation (alkaline phosphatase) of C3H10T1/2 cells [3] | FL1 X COUNT [4] | Kd [5] | Kd [6] | X Geo Mean (Transients) [7] | % Inh of Gli1 reporter, CM N = 1 [8] | % Inh of Gli1 reporter, CM N = 3 [8] | % Inh of Gli1 reporter, Co-Culture N = 1 [9] | % Inh of Gli1 reporter, Co-Culture N = 2 [9] | Kd [11] | Kd [12] | Binder | other results |
| --- | --- | --- | --- | --- | --- | --- | --- | --- | --- | --- | --- | --- | --- | --- | --- | --- |
| 50% | 61% | 44% | 55% | 5.7 nM | 585000 | 0.03 nM | 0.061 nM | 188 | 33% | 47% | 42% | 39% |  |  | 1G1 (antibody, V domains shown, fully human XenoMouse hybridoma antibody; also called MAb 1G1) VH: EVQLVESGGGLVKPGGSLRLSCAASGFTFSSYSMNWVRQAPGKGLEWVSSFSSSSSYIYYADSVKGRFTISRDNAKNSLYLQMNSLRAEDTAVYYCARDRGDYVDYYYGMDVWGQGTTVTVSS VL: SYELTQPPSVSVSPGQTASITCSGDKLDYKYICWYQQKPGQSPVLVIYQDIKRPSGIPERFSGSNSGNTATLTISGTQAMDEADYYCQAWDSNTPLVFGGGTKLTVL | % Inhibition of Gli1 reporter, Co-Culture N = 3, 20 µg/ml [2]: 19%; OD450 (biotinylated human Shh): 4.3 OD450; IC50, inhibition of endogenous mouse Gli1 mRNA (qRT-PCR) in C3H10T1/2 cells [10]: 7.7 nM; IC50, inhibition of endogenous mouse Ptc1 mRNA (qRT-PCR) in C3H10T1/2 cells [10]: 8.7 nM |
|  |  |  |  |  |  |  |  |  |  |  |  |  | 0.317 nM | 0.377 nM | 1G1 recombinant IgG2 (antibody, V domains shown) VH: EVQLVESGGGLVKPGGSLRLSCAASGFTFSSYSMNWVRQAPGKGLEWVSSFSSSSSYIYYADSVKGRFTISRDNAKNSLYLQMNSLRAEDTAVYYCARDRGDYVDYYYGMDVWGQGTTVTVSS VL: SYELTQPPSVSVSPGQTASITCSGDKLDYKYICWYQQKPGQSPVLVIYQDIKRPSGIPERFSGSNSGNTATLTISGTQAMDEADYYCQAWDSNTPLVFGGGTKLTVL | Kd [13]: 0.0465 nM |
|  |  |  |  |  |  |  |  |  |  |  |  |  | 4.31 nM | 4.3 nM | 1H8 recombinant IgG2 (antibody, V domains shown, also called 1H8 hIgG2) VH: QVQLQESGPGLVKPSETLSLTCTVSGGSISSYYWTWIRQPPGKGLEWIGYIYYSGSTNYNPSLKSRVTISVDTSKNQFSLKLSSVTAADTAVYYCARDRLLYGMDVWGQGTTVTVSS VL: not shown | koff [11]: 0.00289 s⁻¹; kon [11]: 671000 M⁻¹ s⁻¹; koff [12]: 0.00209 s⁻¹; kon [12]: 486000 M⁻¹ s⁻¹; Kd [14]: 1.52 nM |
| 89% | 111% | 80% | 68% | 5.3 nM | 661000 | 0.06 nM | 0.047 nM | 313 | -8% | -1% | 46% | 22% |  |  | 6D7 (antibody, V domains shown, fully human XenoMouse hybridoma antibody; also called MAb 6D7) VH: QVQLQESGPGLVKPSQTLSLTCTVSGGSINSGGFYWSWIRQHPGKNLEWIGSIYYSGNTYYNPSLKSRVTISVDTSKNQFSLKLTSVTAADTAVYYCARGNDSGDYDWYFDLWGRGTLVTVSS VL: SYELTQPPSVSVSPGQTASITCSGEKLGYKYVCWYQQKPGQSPVLVIFHDNKRPSGIPERFSGSNSGNTATLTISGAQAMDEADYYCQAGDSSAVFGGGTKLTVL | Kd [15]: 0.052 nM; Kd [16]: 0.107 nM; binding result [17]: no binding; IC50, inhibition of endogenous mouse Gli1 mRNA (qRT-PCR) in C3H10T1/2 cells [10]: 11.7 nM; IC50, inhibition of endogenous mouse Ptc1 mRNA (qRT-PCR) in C3H10T1/2 cells [10]: 8.2 nM |
|  |  |  |  |  |  |  |  |  |  |  |  |  |  |  | 6D7 recombinant IgG2 (antibody, V domains shown) VH: QVQLQESGPGLVKPSQTLSLTCTVSGGSINSGGFYWSWIRQHPGKNLEWIGSIYYSGNTYYNPSLKSRVTISVDTSKNQFSLKLTSVTAADTAVYYCARGNDSGDYDWYFDLWGRGTLVTVSS VL: SYELTQPPSVSVSPGQTASITCSGEKLGYKYVCWYQQKPGQSPVLVIFHDNKRPSGIPERFSGSNSGNTATLTISGAQAMDEADYYCQAGDSSAVFGGGTKLTVL | Kd [18]: 0.0371 nM; Kd [19]: 0.0034 nM; Kd [20]: 0.0135 nM |
| 37% | 44% | 73% | 87% | 3.4 nM | 497000 | 0.331 nM | 0.069 nM | 148 | 21% | -24% | 35% | 32% |  |  | 3H8 (antibody, V domains shown, fully human XenoMouse hybridoma antibody; also called MAb 3H8) VH: QVQLVESGGGVVQPGRSLRLSCAASGFTFSTYGMHWVRQAPGKGLEWVAVIWYDGSNKYYADSVKGRFTISRDNSKNTLNLQMNSLRAEDTAVYYCARDLYYYGSGSPFDYWGQGTLVTVSS VL: EIVMTQSPATLSVSPGERATLSCRASQSVSSNLAWYQQKPGQAPRLLIFGVSIRATGIPARFSGSGSGTEFTLTISSLQSEDFAVYYCQQYNNWPRPGFGGGTKVEIK | OD450 (biotinylated human Shh): 3.81 OD450; Kd [21]: 0.25 nM; binding result [17]: no binding |
|  |  |  |  |  |  |  |  |  |  |  |  |  | 0.0056 nM | 0.0267 nM | 3H8 recombinant IgG2 (antibody, V domains shown) VH: QVQLVESGGGVVQPGRSLRLSCAASGFTFSTYGMHWVRQAPGKGLEWVAVIWYDGSNKYYADSVKGRFTISRDNSKNTLNLQMNSLRAEDTAVYYCARDLYYYGSGSPFDYWGQGTLVTVSS VL: EIVMTQSPATLSVSPGERATLSCRASQSVSSNLAWYQQKPGQAPRLLIFGVSIRATGIPARFSGSGSGTEFTLTISSLQSEDFAVYYCQQYNNWPRPGFGGGTKVEIK | Kd [22]: 0.0682 nM |
